Like-named read-outs stand apart in the source and are kept apart here.
What was measured:
Yu2 gp120 [1] = experiment: SPR
Yu2 gp120 [2] = experiment: SPR; remark: listed apart in the source

B1: CVN (other)
chain: LGKFSQTCYNSAIQGSVLTSTCERTNGGYNTSSIDLNSVIENVDGSLKWQPSNFIETCRNTQLAGSSELAAECKTRAQQFVSTKINLDDHIANIDGTLKYE
Yu2 gp120 [1]
  Kd: 0.622 nM
Yu2 gp120 [2]
  Kd: 0.622 nM

From patent US20230355708A1 (published 2023)
